Assay results published in paper PMC5522423, “Influence of C-terminal truncation of murine Serum amyloid A on fibril structure” (Scientific Reports, 2017).

Molecular target: the molecule itself
Experiment: in vitro fibril formation (negative-stain TEM, with ThT fluorescence, Congo red absorption and ATR-FTIR of the fibrils); 80 µM protein in 50 mM Tris buffer (pH 8.0), 7 days at 37 °C, 300 rpm; self-assembly into amyloid-like fibrils

B1: full-length murine serum amyloid A 1.1, SAA(1–103) (natural protein, mouse, UniProt P05367 20-122, looked up)
chain: GFFSFIGEAFQGAGDMWRAYTDMKEAGWKDGDKYFHARGNYDAAQRGPGGVWAAEKISDARESFQEFFGRGHEDTMADQEANRHGRSGKDPNYYRPPGLPAKY
notes: Serum amyloid A 1.1 (SAA1.1), mouse, 103 residues; also called murine SAA1.1; mSAA; source: E. coli RV308 (pMal-c2X vector), purified as described previously, lyophilized
  binding result: binds
